Legend:
[1] = system: OZ138 CF877R zinc finger array (synthetic); experiment: one_hybrid; details: bacterial two-hybrid lacZ; SD 0.41
[2] = system: OZ126 CF877R zinc finger array (synthetic); experiment: one_hybrid; details: bacterial two-hybrid lacZ; SD 0.28
[3] = system: OZ140 CF877R zinc finger array (synthetic); experiment: one_hybrid; details: bacterial two-hybrid lacZ; SD 0.48
[4] = system: OZ127 CF877R zinc finger array (synthetic); experiment: one_hybrid; details: bacterial two-hybrid lacZ; SD 0.02
[5] = system: OZ129 CF877R zinc finger array (synthetic); experiment: one_hybrid; details: bacterial two-hybrid lacZ; SD 0.07
[6] = system: OZ125 CF877R zinc finger array (synthetic); experiment: one_hybrid; details: bacterial two-hybrid lacZ; SD 0.85
[7] = system: OZ133 CF877R zinc finger array (synthetic); experiment: one_hybrid; details: bacterial two-hybrid lacZ; SD 0.05
[8] = system: OZ136 CF877R zinc finger array (synthetic); experiment: one_hybrid; details: bacterial two-hybrid lacZ; SD 0.06
[9] = system: OZ134 CF877R zinc finger array (synthetic); experiment: one_hybrid; details: bacterial two-hybrid lacZ; SD 0.19
[10] = system: OZ135 CF877R zinc finger array (synthetic); experiment: one_hybrid; details: bacterial two-hybrid lacZ; SD 0.07
[11] = system: OZ137 CF877R zinc finger array (synthetic); experiment: one_hybrid; details: bacterial two-hybrid lacZ; SD 0.04
[12] = system: OZ131 CF877R zinc finger array (synthetic); experiment: one_hybrid; details: bacterial two-hybrid lacZ; SD 0.12
[13] = system: OZ139 CF877R zinc finger array (synthetic); experiment: one_hybrid; details: bacterial two-hybrid lacZ; SD 0.03
[14] = system: OZ124 CF877R zinc finger array (synthetic); experiment: one_hybrid; details: bacterial two-hybrid lacZ; SD 0.20
[15] = system: OZ119 CF877R zinc finger array (synthetic); experiment: one_hybrid; details: bacterial two-hybrid lacZ; SD 0.35; site triplets appear printed in F1-F2-F3 order, so 5'-3' triplet order may be reversed
[16] = system: OZ120 CF877R zinc finger array (synthetic); experiment: one_hybrid; details: bacterial two-hybrid lacZ; SD 0.01
[17] = system: OZ121 CF877R zinc finger array (synthetic); experiment: one_hybrid; details: bacterial two-hybrid lacZ; SD 0.19
[18] = system: OZ142 CF877R zinc finger array (synthetic); experiment: one_hybrid; details: bacterial two-hybrid lacZ; SD 0.16
[19] = system: OZ123 CF877R zinc finger array (synthetic); experiment: one_hybrid; details: bacterial two-hybrid lacZ; SD 0.63
[20] = system: OZ122 CF877R zinc finger array (synthetic); experiment: one_hybrid; details: bacterial two-hybrid lacZ; SD 0.59
[21] = system: OZ130 CF877R zinc finger array (synthetic); experiment: one_hybrid; details: bacterial two-hybrid lacZ; SD 0.22
[22] = system: OZ128 CF877R zinc finger array (synthetic); experiment: one_hybrid; details: bacterial two-hybrid lacZ; SD 0.07
[23] = system: OZ141 CF877R zinc finger array (synthetic); experiment: one_hybrid; details: bacterial two-hybrid lacZ; SD 0.08
[24] = system: OZ132 CF877R zinc finger array (synthetic); experiment: one_hybrid; details: bacterial two-hybrid lacZ; SD 0.05
[25] = system: OZ108 CF877L zinc finger array (synthetic); experiment: one_hybrid; details: bacterial two-hybrid lacZ; SD 0.51
[26] = system: OZ107 CF877L zinc finger array (synthetic); experiment: one_hybrid; details: bacterial two-hybrid lacZ; SD 0.58; site triplets appear printed in F1-F2-F3 order, so 5'-3' triplet order may be reversed
[27] = system: OZ117 CF877L zinc finger array (synthetic); experiment: one_hybrid; details: bacterial two-hybrid lacZ; SD 0.33
[28] = system: OZ115 CF877L zinc finger array (synthetic); experiment: one_hybrid; details: bacterial two-hybrid lacZ; SD 0.12
[29] = system: OZ116 CF877L zinc finger array (synthetic); experiment: one_hybrid; details: bacterial two-hybrid lacZ; SD 0.38
[30] = system: OZ112 CF877L zinc finger array (synthetic); experiment: one_hybrid; details: bacterial two-hybrid lacZ; SD 0.55
[31] = system: OZ109 CF877L zinc finger array (synthetic); experiment: one_hybrid; details: bacterial two-hybrid lacZ; SD 0.20
[32] = system: OZ113 CF877L zinc finger array (synthetic); experiment: one_hybrid; details: bacterial two-hybrid lacZ; SD 0.20
[33] = system: OZ111 CF877L zinc finger array (synthetic); experiment: one_hybrid; details: bacterial two-hybrid lacZ; SD 1.90
[34] = system: OZ118 CF877L zinc finger array (synthetic); experiment: one_hybrid; details: bacterial two-hybrid lacZ; SD 0.08
[35] = system: OZ114 CF877L zinc finger array (synthetic); experiment: one_hybrid; details: bacterial two-hybrid lacZ; SD 0.18
[36] = system: OZ110 CF877L zinc finger array (synthetic); experiment: one_hybrid; details: bacterial two-hybrid lacZ; SD 0.15
[37] = system: T1, CF877 left ZFN (synthetic); experiment: cell_activity; details: as pair with right ZFN, K562 nucleofection; up to ~29% with adenovirus in CFBE41o-; exact clone of pair not stated
T1 sequence: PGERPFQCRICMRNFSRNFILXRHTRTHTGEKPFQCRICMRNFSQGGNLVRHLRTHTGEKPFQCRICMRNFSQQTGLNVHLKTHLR

## GAGTGGTTA (double strand) [CF877R half-site]
[1]
  binding signal (fold activation): 2.52
[2]
  binding signal (fold activation): 2.57
[3]
  binding signal (fold activation): 2.99
[4]
  binding signal (fold activation): 1.6
[5]
  binding signal (fold activation): 2.55
[6]
  binding signal (fold activation): 4
[7]
  binding signal (fold activation): 3.24
[8]
  binding signal (fold activation): 2.16
[9]
  binding signal (fold activation): 3.71
[10]
  binding signal (fold activation): 2.25
[11]
  binding signal (fold activation): 2.26
[12]
  binding signal (fold activation): 2.08
[13]
  binding signal (fold activation): 2.74
[14]
  binding signal (fold activation): 4.41
[15]
  binding signal (fold activation): 2.78
[16]
  binding signal (fold activation): 2.53
[17]
  binding signal (fold activation): 2.91
[18]
  binding signal (fold activation): 2.73
[19]
  binding signal (fold activation): 5.03
[20]
  binding signal (fold activation): 4.72
[21]
  binding signal (fold activation): 2.47
[22]
  binding signal (fold activation): 2.12
[23]
  binding signal (fold activation): 2.87
[24]
  binding signal (fold activation): 1.28

## GTGGAATTA (double strand) [CF877L half-site]
[25]
  binding signal (fold activation): 2.31
[26]
  binding signal (fold activation): 1.92
[27]
  binding signal (fold activation): 3.87
[28]
  binding signal (fold activation): 2.71
[29]
  binding signal (fold activation): 2.53
[30]
  binding signal (fold activation): 2.52
[31]
  binding signal (fold activation): 2.83
[32]
  binding signal (fold activation): 1.61
[33]
  binding signal (fold activation): 2.2
[34]
  binding signal (fold activation): 3.55
[35]
  binding signal (fold activation): 2.95
[36]
  binding signal (fold activation): 1.61
[37]
  activity: 1.2 % indels

Reference: patent US20110086015
